From patent US20260317430 (published 2026)

T1: mouse FGFR2b (mouse, UniProt P21803)
T1 chain: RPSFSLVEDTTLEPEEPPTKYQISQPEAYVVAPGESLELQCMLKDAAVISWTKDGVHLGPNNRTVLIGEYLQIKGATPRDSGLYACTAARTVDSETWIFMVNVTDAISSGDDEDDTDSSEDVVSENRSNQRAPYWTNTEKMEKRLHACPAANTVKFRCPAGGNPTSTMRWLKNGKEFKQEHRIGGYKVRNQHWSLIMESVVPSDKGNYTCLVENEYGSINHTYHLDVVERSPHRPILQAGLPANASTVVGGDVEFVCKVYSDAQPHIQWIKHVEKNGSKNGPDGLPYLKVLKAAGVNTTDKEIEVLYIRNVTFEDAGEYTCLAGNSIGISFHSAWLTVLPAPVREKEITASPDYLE


Tests used:
mouse FGFR2b = target: T1, mouse FGFR2b; test: BLI
[1] = target: human FGFR2b on KATO III cells (human, UniProt P21802); test: FACS
Chain of human FGFR2b on KATO III cells (P21802 22-377): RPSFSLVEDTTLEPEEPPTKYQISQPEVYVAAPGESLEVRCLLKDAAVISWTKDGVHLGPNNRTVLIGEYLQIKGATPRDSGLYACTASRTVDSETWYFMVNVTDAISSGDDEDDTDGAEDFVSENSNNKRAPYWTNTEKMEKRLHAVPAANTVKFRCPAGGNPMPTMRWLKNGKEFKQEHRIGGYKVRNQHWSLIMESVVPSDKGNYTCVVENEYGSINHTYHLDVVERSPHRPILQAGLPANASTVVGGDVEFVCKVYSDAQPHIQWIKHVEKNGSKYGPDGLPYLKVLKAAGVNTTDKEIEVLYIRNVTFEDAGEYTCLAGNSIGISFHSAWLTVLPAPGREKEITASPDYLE

[2] = target: T2, human FGFR2b extracellular domain (human, UniProt P21802); test: ELISA
T2 sequence (P21802 22-377): as above

[3] = target: T2, human FGFR2b extracellular domain; test: BLI

Row | Kd (mouse FGFR2b) [nM] | EC50 [1] [µg/mL] | EC50 [2] [µg/mL] | Kd [3] [nM] | Binder
1 | 53.5 | 0.233 | 0.0216 | 6.18 | 2B2 (antibody, V domains shown) VH: QLQLQQSGAELVKPGASVKMSCKASGYTFASYNLHWVKQTPGQGLEWIGLIYPENGDTSYNQKFKDKATLTADKSSTTAYIQLSSLASEDSAVYFCARGGFDYWGQGTTLTVSS VL: DIVMTQSQKFMSTSVGDRVSVTCKASQNVGTNVAWYQQKPGQSPKALIYSASYRYSGVPDRFTGSGSGTDYTLTISSVQAEDLALYYCQQHYSTPYTFGGGTKLELK
2 | 33.9 | 0.117 | 0.0147 | 7.6 | 3B7 (antibody, V domains shown) VH: EVQLQQSGAELVKPGASVKMSCKASGYTFRYYNMHWVKRTPGQGLEWIGLIYPDNGDTSYNQKFKGKATLTADTSSSTAYMQLSSLTSEDSAVYYCARGGFDYWGQGTTLTVSS VL: DIQMTQSPASLSASVGETVTITCGASENIYGALNWYQRKQGKSPQLLIYGATNLADGMSSRFSGSGSGRQYSLKISSLHPDDVATYYCQNVLSTPYTFGGGTKLELK
3 | 99.8 | 0.0656 | 0.00818 | 12.2 | 1A3 (antibody, V domains shown) VH: QVQLQQPGAELVKPGASVKMSCKASGYTFASYNLHWVKQTPGQGLEWIGLIYPENGDTSYNQKFKGKATLTADKSSSTAYIQLSSLTSEDSAVYFCARGGFDYWGQGTTLTVSQ VL: DIQMTQSPASLSASVGETVTITCGASENIYGALNWYQRKQGKSPQLLIYGATNLADGMSSRFSGSGSGRQYSLKISSLHPDDVATYYCQNVLSTPYTFGGGTKLEIK
4 | 36.5 | 0.236 | 0.0235 | 4.45 | 3E2 (antibody, V domains shown) VH: EIQLQQSGAELVKPGASVKMSCKASGYTFSFYNMHWVKRTPGQGLEWIGLIYPDNGDTSYNQKFKGKATLTADTSSSTAYMQLSSLTSEDSAVYYCARGGLDYWGQGTSLTVSS VL: NIVMTQSQKFMSTSVGDRVSVTCKASQNVGTNVAWYQQKPGQSPKALIYSASYRYTGVPDRFTGSGSGTDFTFTISSVQAEDLAVYYCQQHYSTPYTFGGGTKLEIK
5 | 23.8 | 0.161 | 0.0278 | 5.69 | 3H9 (antibody, V domains shown) VH: EIQLQQSGAELVKPGASVKMSCKASGYTFSFYNMHWVKRTPGQGLEWIGLIYPDNGDTSYNQKFKGKATLTADTSSSTAYMQLSSLTSEDSAVYYCARGGLDYWGQGTTLTVSS VL: DIVLTQSPASLSVSVGETVTITCRASENIYSNLAWYQQKQGKSPQLLVYAATNLADGVPSRFSGSGSGTQYSLKINSLQSEDFGSYYCQHFWGTPYTFGGGTKLELK
6 | 42.2 | 0.186 | 0.0235 | 3.97 | 1G6 (antibody, V domains shown) VH: EIQLQQSGAELVKPGASVKMSCKASGYTFRYYNMHWVKRTPGQGLEWIGLIYPDNGDTSYNQKFKGKATLTADTSSSTAYMQLSSLTSEDSAVYYCARGGLDYWGQGTSLTVSS VL: NIVMTQSHKFMSTSVGDRVSITCKASQDVNTDVAWYQQKPGQSPKLLIYSASYRYTGVPTRFTGSGSGTDFTFTISGVQAEDLADYYCQQHYNTPYTFGGGTKLELK
7 | 75.6 | 0.152 | 0.0159 | 11.1 | 1C10 (antibody, V domains shown) VH: QVQLQQSGAELVKPGASVKMSCKASGYTFRYYNMHWVKRTPGQGLEWIGLIYPDNGDTSYNQKFKGKATLTADTSSSTAYMQLSSLTSEDSAVYYCARGGLDYWGQGTSLTVSS VL: DIVMTQSPASLSASVGETVTITCRASGNIHNYLAWYQQKQGKSPQLLVYNAKTLADGVPSRFSGSGSGTQYSLKINSLQPEDFGSYYCQHFWSTPYTFGGGTKLEMK
8 | 41.9 | 0.149 | 0.0276 | 6.25 | 3G10 (antibody, V domains shown) VH: EVQLQQSGPELVKPGASVKMSCKASGYTFATYNMHWVKQTTGQGLEWIGAIYPDNGDTFYNRKFKDKATLTADKSSTTAYMQLSSLTSEDSAVYYCARGDFAYWGQGTLVTVSA VL: DVLMTQSPASLSASVGETVTITCGASENIYGALNWYQRKQGKSPQLLIYGATNLADGMSSRFSGSGSGRQYSLKISSLHPDDVATYYCQNVLSTPYTFGGGTKLEMK
